What all share (assay): BLI
In general terms: Biolayer interferometry detects binding as a change in optical thickness at a sensor tip.

Assay [1] has as its target recombinant SARS-CoV-2 WT (Wuhan-1) RBD.
For assay [2], the target named is recombinant SARS-CoV-2 Omicron BA.1 RBD.
The target in assay [3] is recombinant SARS-CoV-2 Beta RBD.
In assay [4] the target is recombinant SARS-CoV RBD (SARS-CoV, UniProt P59594 306-527).
Assay [5] addresses recombinant SARS-CoV-2 Delta RBD.
Assay [6] addresses recombinant SARS-CoV-2 Omicron BA.2 RBD.

B1: ADI-75738 (antibody, V domains shown)
VH: QVQLQQWGAGLLKPSETLSLTCGVHDGAFSGYFWNWIRQSPVKGLEWIGEVTHSGNTNYNPSLKSRVTMSVDASKNEFSLNLTSVTAADTAVYYCARGDFYSTRLAFDVWGQGSMVTVSS
VL: EIVLTQSPATLSLSPGERATLSCRASQSVSTYLAWYQQRPGQAPRLLIYDASNRATGIPARFSGSGSETDFTLTISSLEPEDFAVYYCQQRSNWLTFGGGTKVEIK
Broadly, the Kd is the equilibrium constant for the complex coming apart. As for B1, the Kd in assay [1] was 0.26 nM; in assay [2] it was 2.77 nM; in assay [3] it was 0.56 nM; in assay [4], 150 nM; in assay [5], 1.53 nM; in assay [6], 1.59 nM.

B2: ADI-75700 (antibody, V domains shown)
VH: QVQLQQWGAGLLKPSETLSLTCGVYDGSFSDYFWNWIRQPPGKGLEWIGELTHTGSTNYNPSLKSRVTILADTSKSQFSLNLSSVTAADTAVYYCARGDFYSTRLAFDLWGQGTTVTVSS
VL: EIALTQSPATLSLSPGERATLSCRASQSVSTYLAWYQQKPGQAPRLLIYDASKRATGIPARFNGSGSGTDFTLTISSLEPEDFAVYYCQQRSTWPTFGGGTKVDIK
Regarding B2, the Kd in assay [1] was found to be 0.24 nM; in assay [2], 7.01 nM; in assay [3], 1.23 nM; in assay [4], 62.2 nM; in assay [5], 1.22 nM; in assay [6] it was 2.51 nM.

B3: ADI-75684 (antibody, V domains shown)
V domain 1: QVQLQESGPGLVKPSETLSLTCTVSGGSISSDHFYWGWIRQPPGKGLEWIGTTYYTARTNYNPSLKSRVTISVDTSKNQFSLKLTSVTATDTAIYYCARVEVSGGFSGYDFLTPYYFDYWGQGALVTVSS
V domain 2: not shown
Consider B3, for which the Kd in assay [2] is 1.35 nM; in assay [3], 1.05 nM; in assay [4], 2.59 nM; in assay [5], 1.89 nM; in assay [6] it was 18.4 nM.

B4: ADI-75754 (antibody, V domains shown)
VH: QVQLVQSGGDLVQPGGSLRLSCVASGFTFSNYEMNWVRQGPGKGLEWISYISTSGSTYYYADSVKGRFTISRDNARNSLYLQMDSLRVEDTAIYYCLTHPQPQYVRPTQVVWFDPWGQGTLVTVSS
VL: EMTMTQSPGTLSLSPGERATLSCRASESVSSEYLAWHQQRPGQAPRLLIYGASSRPTGIPDRFSGSGSGTDFTLTISRLEPEDFAVYYCHQFASAPITFGQGTRLEIK
B4: the Kd in assay [1] is 3.58 nM; in assay [2], 37 nM; in assay [3], 1.61 nM; in assay [4] it was 1.41 nM; in assay [5], 3.45 nM; in assay [6] it was greater than 300 nM.

B5: ADI-75859 (antibody, V domains shown)
VH: QVQLVQSGGGVGQPGRSLRLSCAASGFTFGHYGMHWVRQAPGKGLEWVAAIIYDGSDKQYADSVKGRFTISRDNSKNTVYLQMNSLRPEDTAIYFCAKLGGLYCSGGNCFSGYFDYWGQGTLVTVSS
VL: ETTLTQSPSSLSASVGDRVTITCRASQGISNSLAWYQQKPGKAPKLLLYAASTLESGVPSRFSGSGSGTDFTLTIASLQPEDFATYYCQQYYSSVRFTFGQGTILDLN
B5: the Kd in assay [1] was 0.36 nM; in assay [2], 13.3 nM; in assay [3], 0.89 nM; in assay [4], 226 nM; in assay [5], 0.82 nM; in assay [6], 2.37 nM.

Values taken from patent US20250223339A1 (published 2025).
